# Experimental data from patent publication US20040029198A1, “Method of analyzing ataxia-telangiectasia protein” (priority 2002, published 2004).
# Experiments:
# [1] = Stability of ATM in isolated PBMC samples stored at different temperatures, measured by sandwich immunoassay; type: physicochemical; settings: for amount of ATM: in ng/mL (unit assumed)
# Procedure: The following is a sandwich immunoassay which was performed to measure ATM protein in nuclear cell lysates and cell extracts from cell lines and peripheral blood mononuclear cells taken from normal individuals and A-T patients.
# Wells of a 96-well flat bottom plate were incubated with two purified commercially available anti-ATM mouse monoclonal antibodies (ATM-2C1, GeneTex, Inc, San Antonio, Tex.; Ab-8, NeoMarkers, Fremont, Calif.) at 5 μg/ml in phosphate-buffered saline, pH 7.4 for 6 hours. After extensive washing and blocking of the wells for one hour with a solution of 3% bovine serum albumin in phosphate buffered saline containing 0.1% Tween-20, standard concentrations of purified ATM protein and nuclear cell lysates or cell extracts (see below) were added to the wells for an overnight incubation at room temperature.
# After extensive washing, a rabbit anti-ATM antiserum at a 400× dilution was added to each of the wells and incubated for 3 hours at room temperature. The antiserum came from Novus Biologicals (NB 100-104, Littleton, Colo.). After washing and blocking, an HRP-conjugated goat anti-rabbit IgG antiserum at a 1:6000 dilution was added to each well and incubated for 3 hours at room temperature. The conjugate came from Jackson ImmunoResearch Laboratories (211-035-109, West Grove, Pa.).
# The plate was then washed and Pierce ImmunoPure tetramethylbenzidine (TMB) substrate (34021, Rockford, Ill.) was added to each well. After color development, the reaction was stopped with 1M sulfuric acid and the color intensity was measured spectrophometrically at 450 nm. A concentration curve was generated based on signals generated for the purified ATM protein and concentrations of unknown samples were read off the standard curve.
# Nuclear lysates were prepared from lymphoblastoid cell lines (EBV-infected) derived from A-T patients and healthy donors using commercially available extraction reagents and procedures (78833, Pierce, Rockford, Ill.). Whole cell extracts were generated from peripheral blood mononuclear cells and lymphoblastoid cell lines by subjecting known numbers of resuspended cells to ultrasonic energy at a 20 kHz frequency generated by a Fisher Sonic Dismembrator (model 550). The disrupted cell product was then added directly to wells of the microtiter plate without any additional manipulations.
# (§1) It has been observed that ATM protein is unstable in whole blood. […] It is therefore preferable that ATM proteins be isolated and measured shortly after extracting the cells from a patient to obtain the most reliable data. […] Table 2 compares the amount of ATM in two such samples stored at −5° C. and −70° C.
# [2] = Stability of ATM protein in whole blood; type: physicochemical; settings: FIG. 3
# Procedure: as §1
substance,measurement,setting,value
"ATM: 370 kDa protein kinase known as ""ataxia-telangiectasia, mutated"" (ATM), encoded by the A-T gene",stability of ATM levels in a sample,"[1]; PBMCs isolated from fresh blood, stored at −70° C. for 6 weeks",relatively stable
same,amount of ATM,"[1]; stored at −5° C., week 0, 3 readings",444 ± 22
same,amount of ATM,"[1]; stored at −5° C., week 1, 3 readings",126 ± 8
same,amount of ATM,"[1]; stored at −5° C., week 2, 3 readings",115 ± 14
same,amount of ATM,"[1]; stored at −5° C., week 3, 3 readings",66 ± 17
same,amount of ATM,"[1]; stored at −5° C., week 4, 3 readings",50 ± 10
same,amount of ATM,"[1]; stored at −5° C., week 6, 3 readings",32 ± 2
same,amount of ATM,"[1]; stored at −70° C., week 0, 3 readings",444 ± 22
same,amount of ATM,"[1]; stored at −70° C., week 1, 3 readings",458 ± 11
same,amount of ATM,"[1]; stored at −70° C., week 2, 3 readings",512 ± 63
same,amount of ATM,"[1]; stored at −70° C., week 3, 3 readings",424 ± 34
same,amount of ATM,"[1]; stored at −70° C., week 4, 3 readings",439 ± 79
same,amount of ATM,"[1]; stored at −70° C., week 6, 3 readings",458 ± 69
same,stability in whole blood,[2],unstable
